The DeepSol protein solubility set

Test: soluble on expression in E. coli; label from the status in PepcDB or PDB records

Soluble on expression in E. coli, not soluble:
MGSDKIHHHHHHMIDKLEFFIALAKEEHFGRAAEACGVTQPTLSAGIKQLEGQLGVMLVNRGSRFQGLTPEGKQVLVWARRIVGDSRSMREEMRAARHGLSGRIRIAAIPTALAMVARLTTPFREKHPGVTFSVLSRTSIEVLSLLGNFDIDAGITYLDNEPLGRVTSVPLYDERYQLITAVGNPYSDRDKVTWAEISRLPLCLLTPDMQNRRIIDQHLAEAGVQVRPTLESNSMIVLFSHIRTGKWSSIMPLNLAETFGFSEPIRAIPIVEPDASHTVGLVAAPREPHTPLVQALLDEAMALADDFRAHR, MGSDKIHHHHHHMIEITHGDILRADTEAIVNTVNCVGVMGRGIALQFKKAWPDNFKAYAAACNSKNVQPGKMFIFETGQLANPRFIINFPTKRHWKGASRIEDIESGLVALVADIQRLGIKSIAIPPLGAGLGGLDWLVVRDKIEAAMQPLTDVQILLYEPAGAPQNDRIAKQKEVPKMTAGRAVLIELMQRYLKGLLDPTVSLLEVHKLLYFMQEAGEPLRLKYEKAHYGPYAQNLRHVLNAIEGHFISGYADGGDKPEKELRLVPGAVKEAQEFLEQHPDTRERFTKVSELVEGFESPLGLELLATVHWLNKYEHVRSTDQVIESVHSWNTRKQLFTARQITIAEKVLARQNWLSA, MGSDKIHHHHHHMIEKVEEKSKIIKTSKEYKRTIIEEKDKEWTKKLNDILSRSSFSNDELDKIKALIPKEILTNENVGEVVTEDGYAKPEYDEVFKSLFTLNNEYDLLVNFINDILKDAPYANRNIKPFTQIKRIIRVETDPTINYIGEKRPRLDILAEDEENNHINIEMQRAFENDYLERAEYYLSRVHGRKLEEGKEYKEIGKTIGIHILNHVKYNHIEDYVNCLRLTMDGHPDIYSSKTALYFIELPKIHKSDYIVNRIMLWGKLISNPSNLDVRVIAKNDSIIKKALDRLKELGSNEEYLLNLKRGAYIMNKSRNFKEEIERETAIRVAKEKDYKIIIMLKKNGFKLDDILNKFNDFDLSEDEIKEVYENN, MGSDKIHHHHHHMIELIATAESVEQAVELLATGVDTLYIGEETFGLRLPVSFTRDEQREIVKRAHEMGKQVLVAVNGIMHPEKMKLVPEYLTFLKEINVDKITLGDPGIVFIMQRDGLEIPYVYDGETLVTSSRQINFWSKRGAIGAVLAREVPFEEMVAMEENLAVPAEILVYGATCIHQSKRPLIQNYYNYTKNDKGVTKDEGLFISEPKKPETHYSIYEDSHGTHIFANNDVNLMNELTNLYDHHYRTWKLDGLYTPGENFVAIARLFAEAKAALEAGTWSEDQAAHATAEIEKLHPTGRGLDNGFFDLSADAIK, MGSDKIHHHHHHMIEVTQGSSPLVLGLPHTGTDVPAEVAQHLNDRGQALADTDWHIHDLYAGLVEGVTTVRTPIHRYVIDVNRDPEGVSLYPGQNTTTLVPLTDFDGHPIWQQEPDAAETAHRLETYHVPYHAALEAEMKRVAGLHGFAILYDCHSIRGDIPFLFEGRLPDFNVGTNLGATCAPSIEDMVFQRCQRAEGYTSVLNGRFKGGWTTRHYGRPDQGWHAIQMELAQATYCDEQPPWRYDPVRADRLRGHLTQILTDLTEWRPA, MGSDKIHHHHHHMIIDLSQLPEPEVIENLDFETIYQELLGDFREAMAGEWTAEVESDPVLKLLQLAAYRELLLRARINDAARAVMLAYASGADLDQIGAGFNVQRLLIRPAQPEAVPPVEAQYESDKSLRNRIQLAFEQLSVAGPRNAYIAHALGADGRVADASATSPAPCEVLISVLGVEGNGQAPEAVLQAVRLALNAEDVRPVADRVTVRSAGIVPYQVKAQLYLFPGPEAELIRAAAEASLRDYISAQRRLGRDIRRSALFATLHVEGVQRVELQEPAADVVLDETQAAYCTGYAITLGGVDE, MGSDKIHHHHHHMIIKTSFLIVIHAQYAKKVVGKKISIYFTIHSGIKIFVKMKTCARISCFLILAVCSFFDAAAQGNFLLWEITGNGLADTSYLFGTIHIRDKRVFNLGDSTYYAITHTKALYGELNLQDKSEMKQHAPELLMPSGTSLQAMLSAQDYKLVKKYCKKHIGVYALLINKIKPIYISAVVSEDLLKKEEKKPLDLYLQDYAARQGNEIGGIETFQEQLSVIDLLPLQEQADMLVEQIKNIDQEKILMEQMLQFYLNESLDSLEILVQEDTLSQEFNEAILDARNKVMLTRMETQMNREPTFFAVGAAHLAGEKGLVILLRKAGYTVRPVKRK, MGSDKIHHHHHHMIILDNHFHVDPINGLFLEAVKQFHRAGGTHLVVVYKSAHDYGFGGMKGEDFMRAMDFHVELVEIINKETPVKAYAVVGVHPAEFDYLARARGIEYAKREVMKALEHAQRLCLDGKAIGIGEVGRPHYPVPEEIWEASIEIMKYAMALAKEADCAVQLHTESFDEEKFRELGRYVREVGIKPYRVVKHFSPPLVKVAEEVGIFPSIIASRKNIEEAIKQGTRFLMETDYIDDKRRPGAVLGPKTVPRRTKELLQKGILTEDDVYRIHVENPEKVYGIEL, MGSDKIHHHHHHMIILDRNSYDLLSYLIKLEEPETVMSISKVLNQSRRKVYYHLDKINEALPSEIPKIISYPRIGILLSSQQKAACRTLLADLDDYSYVMSIQERMLLSITYIAIAKDRVTIEKLMQINAVSRNTILNDLNELRQRLSFEPYSIKLQATKSKGYYLDCHPLSKIQYLNKLLHTIYTDSNPNFIAMMRDKLRDFADLSSYFSDDISSFIRGELQVSQALLGKKINSQDIRFMVATLPYQLLSYQNLGLSEREQRDLLSEFSPIKERKEYEIARHLNENLKREFHIELDEIETSLIAVLLLSYRKDRDMHLESHDYDDMRRVLSYFIDAFELDYHVCFKHKQLLLNQLLTHCKALLFRKAYGIVSNNPLTDQIKDKYADLFAMTKVCLSILENAWSIKMNDDDIAYITIHIGGELVHSETKPTPPAVLTLVCDEGIGVQKLFMQQCKQYLPHSKIEAVLTSEQFYSVADIMAVDLVISTNDSLDTQLPTLFVHSILRDDDAIKLIRFAKQRGQTGQDDFDKKLETYIRHYVKNDSDCYVLKTKIEGLINEELLYDNNKR, MGSDKIHHHHHHMIISWNTTNKCNMHCEHCYRDSGKGAEGELSTTEGKKLIDEIAKAGFKIMIFSGGEPLLRDDIYELIGYASKIGLRCVIGSNGTLITLEAAQKLKKAGVMRAGISLDSLKAKKHDSFRNYSGAWENTIIGIENLKKAGISFQINTTVMKWNKDEVKDITDFGANLGASAHHVFFLVPTGRGAELQEQILSKNDYENLIKEIMLKQAHANIEIKPTCAPQFVRIAEQNNIKTRFKKGCLAGIKYCIISPTGNVQPCAYLNFSAGNVKQKSFGEIWRESPILKKLRTMEYGEKCGTCKYKNKCGGCRARAAFYNNGDIMASDTWCIYNEYEENKING, MGSDKIHHHHHHMIKAMYSGVSGMKANQTKLDVIGNNVANAGTTSFKKSSARITDSFYQTVLYASAPTAALGGTNLGQVGVGSKISSINKDMVQGNVQPTNRPSDLMIDGDGYLPVVRQGTVMYTRDGSFNLDTGFKAADGALKNIKGGRLVNGDGYMLQGMIYDGEYKADTGEFVKKGDAKGKEPIVIPLQSISPKDGTVQNVLEYNISKDGTVEFLLSDGQRTQFVYDIPDGAKVGDTPAGIDKLKGTIQKVQIYAFQNPAGLDAAGGNLFKPSANSGDPQIAGATGTIIQGAIEASNVDIAEEFTEMIIASRSFQANSKIISTSDEILQEIINLKR, MGSDKIHHHHHHMIKHIFCDLDGTLYENGTITKEDIVAIEEIEKKGVQFNVATGRIFKQAHNIIKDSLDMNGYYVCENGSFIYDKDYNVIFKRTIDDNLVKKVIDRFESSDAQLYFKYKGDVIVGSDTTAFRHYSSDFIVDPDFEKRSSFDNLIGNIGVCSENLEELSRIELYLKSEFSEVLEIYFSGTYTLNIVPKSVSKRGSIEHVIKTLNVSPDEVATIGDSPNDICMLEGFKYSFAMSKAREDVKQSANYVVDSVKSAIDVIMEINS, MGSDKIHHHHHHMIKILLLIDYSSEFDRKLLRGLVQYSKENGPWLFYRLPSYYSGMYGEKGILKWAKEWKADAIIGQWNNDTVNLLKELNIPIVLQNYHHRSTTYSNLTGDYKGTGRMAAQFFAKRMFHNFAYFGINGVVWSDERCEGFRQEVKRIGGNFYCFESDKHEDEIRIEVSQWLQELPKPIALFCCDDSHALFISETCKISNIHIPEEISLLGVDNDDLICNISDPPISSIELEVERGGYSIGRLIHQQIKKEHEGTFNIVINPIRIELRQSTEKHNIKDPYILEVVKYIESHYNSDLTIESLLAQIPLSRRNFEVKFKNAMHTSIYQYILNCRVNHLADLLLTTDRSLADIATEAGFKDYNNISRIFKKFKGCSPLEYREKKITNR, MGSDKIHHHHHHMIKRNAAKPVRVAPPMMEEQEVSTSTLQELLEKEETVSNLIFSKGREEGISKSYKSFKNCTFRNQTFSECKFRSSQLADIRFENCDLSNISFAESSLYRVEFIACKLLGTNLSETTMNHVLLHDCNASYINLAMSKMNQVRFSHCHFRNGSFNDCRFSSVAFDSCDLVEADFSHAPLRGIDLRTSRIGGITLNISDLKGAVITSLQAMDLLPLLGVIIED, MGSDKIHHHHHHMIKVALLHFGFEDYTIELANSLSKYVDLTLINPKKLSDVCGDAFDPSIRVVSFKKPRIRDPRNLLSMNAMMRIIKDIQPDVLHVQETNDPWYDWTLLLNKMPPLVTTIHDVFRHPGDKVAVFGSEYTRRIAFYRSQQLIVHTHQLKKILIEQFNLPEGRVNVIPHGELGSLYQHRGDRSNQPRDPNTLLFFGRIWPYKGLKYLLEAMPLIAECVPEVKLIIAGRGENIKEYFPNGYDENRYEIINRLIPLEEVSNLFQRSTVTVLPYIEASQSGVAALSYGMGTLVVASDVGGLSEIVQHKKDGLLVPPRDVRALADAIICLLSDRDLQQKMQTAALARCQQDLNWSNIAAQTVEVYQKTMKPIHQ, MGSDKIHHHHHHMILFAGDPHGSYSHLYPFIQEHANVSLIILGDLQLTTSDELDKLAQFCDLWFIHGNHDSKTVSAYEALWGTKWKSRNLHGKVVDIQGIKIAGLGGVFRGQIWMPPNKPLFFDHIHYCQYAPPEKIWRGGIPLRHRTSIFPSDIEALEKQKADILICHEAPKPHPLGFSVINNLATSMQVKHIFHGHHHESFDYTKRPNKNPFKITNVGFRSLCNINGNFLLIGIDDRE, MGSDKIHHHHHHMILMNNPGDKEVLRLLKQRMESVSQVEETVKEIIRRVKEEGDRALEEFLKRFEKHPVGIENLRVTEKEISEAQVEEEFVETIKIVIEDLKEFHRRQEERSFFFTTKGGSFLGEMVVPLESVGIYVPGGKVPYFSTLLMCAVPAIVAGVERIAVTTPPNENGGISPYILKTCEILGLKEIYRMGGAHAVAALTYGTETVKPVDKIVGPGGVFVTLAKKHVYGDVGIDSIAGPSEIAIVTDGSADLDLIAADFLSQAEHDENAMSVVITTSKEVFEKLPQVIERHLEALPEERRKTARISTENFGTIILTDSLKRAFEISNLIAPEHLEVLVENPFEPLGHIKNAGSVFLGKYTCESVGDYGAGPNHVLPTFRSARFSSGLRVSDFTKKIFITHLSEEDFRRKSELYSKMARWEGFEAHARAIDVRREKL, MGSDKIHHHHHHMILTKEKSLNAGPIYGTGEGVAHSKRWYVALVRMHHEKKVSEYLNKVGIENFVPVQKEIHQWSDRRKLVESVLLPMMVFVHADPKERMEVLNFTTVSRYMVMRGESSPAVIPDDQMARFRFMLDYSDETVCMNSSPLARGEKVQVIKGPLQGLVGELVNVDGKSKIAVRLNMLGCACVDMPIGYVEPIGEKN
